Bounds are passed on as bounds.

What all share (assay): cell-based or functional assay
Assay [1] addresses HIV-1 MGRM-C-020 Env (HIV-1).
Assay [2] concerns the target HIV-1 Env of pseudovirus APV_13, clade B (HIV-1).
For assay [3], the target named is HIV-1 92RW008 envelope glycoprotein (Env) (HIV-1).
Assay [4] has as its target HIV-1 MGRM-C-017 Env (HIV-1).
Assay [5] concerns the target HIV-1 Env of isolate MGRM-G-027 (clade G pseudovirus) (HIV-1).
Assay [6] addresses HIV-1 MGRM-A-001 envelope glycoprotein (Env) (HIV-1).
Assay [7] has as its target HIV-1 MGRM-A-003 envelope glycoprotein (Env) (HIV-1).
Assay [8] concerns the target HIV-1 MGRM-F1-004 Env (pseudovirus) (HIV-1).
The target in assay [9] is HIV-1 MGRM-C-001 Env (HIV-1).
Assay [10] has as its target HIV-1 MGRM-A-005 envelope glycoprotein (Env) (HIV-1).
Assay [11] concerns the target HIV-1 Env of isolate MGRM-D-001 (clade D) (HIV-1).
The target of assay [12] is HIV-1 92RW024 envelope glycoprotein (Env) on pseudovirus (HIV-1).
In assay [13] the target is HIV-1 98CN006 envelope glycoprotein (Env) on pseudovirus (HIV-1).
In assay [14] the target is HIV-1 MGRM-F1-020 Env (pseudovirus) (HIV-1).

Chain of 1443_C16 (PG16) (TCN-116) (antibody) (VH): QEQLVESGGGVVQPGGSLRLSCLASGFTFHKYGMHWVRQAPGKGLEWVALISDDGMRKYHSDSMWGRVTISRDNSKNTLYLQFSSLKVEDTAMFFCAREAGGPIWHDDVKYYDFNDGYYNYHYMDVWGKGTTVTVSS
Chain of 1443_C16 (PG16) (TCN-116) (antibody) (VL): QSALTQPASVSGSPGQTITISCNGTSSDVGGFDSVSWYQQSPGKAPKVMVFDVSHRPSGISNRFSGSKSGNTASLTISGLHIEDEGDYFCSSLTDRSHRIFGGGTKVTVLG

Turning to 1443_C16 (PG16) (TCN-116) (antibody), the IC50 was > 50 µg/mL in assay [1], 1.8 µg/mL in [4] and 16.8 µg/mL in assay [9]. Besides, the IC50 (µg/ml), pseudovirus neutralization in assay [2] is > 50 µg/mL; in assay [3], 0.002 µg/mL; in assay [5] it was 0.01 µg/mL; in assay [6], > 50 µg/mL; in assay [7] it was 2.65 µg/mL; in assay [8], 0.43 µg/mL. Further, the IC50 (µg/ml), pseudovirus neutralization is 0.09 µg/mL in assay [10]; > 50 µg/mL in assay [11]; 0.08 µg/mL in assay [12]; > 50 µg/mL in assay [13]; 4.35 µg/mL in [14].
1495_C14 (PGC14) (antibody): the IC50 in assay [1], in [4] and in [9] was > 50 µg/mL throughout. The IC50 (µg/ml), pseudovirus neutralization in assay [2] is > 50 µg/mL; in [3], 37 µg/mL; in [5], > 50 µg/mL; in assay [6], > 50 µg/mL; in assay [7] it was > 50 µg/mL; in assay [8] it was > 50 µg/mL. The IC50 (µg/ml), pseudovirus neutralization in assay [10], in assay [11], in [12], in [13] and in [14] was > 50 µg/mL in each case.
On to b12 (antibody), for which the IC50 in [1], in [4] and in assay [9] was > 50 µg/mL each time. Besides, the IC50 (µg/ml), pseudovirus neutralization in assay [2] was > 50 µg/mL; in assay [3], 9.46 µg/mL; in assay [5] it was > 50 µg/mL; in assay [6], > 50 µg/mL; in [7], > 50 µg/mL; in assay [8] it was > 50 µg/mL. For the same substance, the IC50 (µg/ml), pseudovirus neutralization was 3.64 µg/mL in [10]; > 50 µg/mL in [11]; > 50 µg/mL in [12]; > 50 µg/mL in assay [13]; > 50 µg/mL in assay [14].
